Measured values as given in IntAct's records for PubMed 29892012.

B1: Zinc finger CCCH domain-containing protein 11A (Homo sapiens), O75152 (parent)
chain: MPNQGEDCYFFFYSTCTKGDSCPFRHCEAAIGNETVCTLWQEGRCFRQVCRFRHMEIDKKRSEIPCYWENQPTGCQKLNCAFHHNRGRYVDGLFLPPSKTVLPTVPESPEEEVKASQLSVQQNKLSVQSNPSPQLRSVMKVESSENVPSPTHPPVVINAADDDEDDDDQFSEEGDETKTPTLQPTPEVHNGLRVTSVRKPAVNIKQGECLNFGIKTLEEIKSKKMKEKSKKQGEGSSGVSSLLLHPEPVPGPEKENVRTVVRTVTLSTKQGEEPLVRLSLTERLGKRKFSAGGDSDPPLKRSLAQRLGKKVEAPETNIDKTPKKAQVSKSLKERLGMSADPDNEDATDKVNKVGEIHVKTLEEILLERASQKRGELQTKLKTEGPSKTDDSTSGARSSSTIRIKTFSEVLAEKKHRQQEAERQKSKKDTTCIKLKIDSEIKKTVVLPPIVASRGQSEEPAGKTKSMQEVHIKTLEEIKLEKALRVQQSSESSTSSPSQHEATPGARRLLRITKRTGMKEEKNLQEGNEVDSQSSIRTEAKEASGETTGVDITKIQVKRCETMREKHMQKQQEREKSVLTPLRGDVASCNTQVAEKPVLTAVPGITRHLTKRLPTKSSQKVEVETSGIGDSLLNVKCAAQTLEKRGKAKPKVNVKPSVVKVVSSPKLAPKRKAVEMHAAVIAAVKPLSSSSVLQEPPAKKAAVAVVPLVSEDKSVTVPEAENPRDSLVLPPTQSSSDSSPPEVSGPSSSQMSMKTRRLSSASTGKPPLSVEDDFEKLIWEISGGKLEAEIDLDPGKDEDDLLLELSEMIDS
B2: Angio-associated migratory cell protein (Homo sapiens), Q13685 (parent)
chain: MESESESGAAADTPPLETLSFHGDEEIIEVVELDPGPPDPDDLAQEMEDVDFEEEEEEEGNEEGWVLEPQEGVVGSMEGPDDSEVTFALHSASVFCVSLDPKTNTLAVTGGEDDKAFVWRLSDGELLFECAGHKDSVTCAGFSHDSTLVATGDMSGLLKVWQVDTKEEVWSFEAGDLEWMEWHPRAPVLLAGTADGNTWMWKVPNGDCKTFQGPNCPATCGRVLPDGKRAVVGYEDGTIRIWDLKQGSPIHVLKGTEGHQGPLTCVAANQDGSLILTGSVDCQAKLVSATTGKVVGVFRPETVASQPSLGEGEESESNSVESLGFCSVMPLAAVGYLDGTLAIYDLATQTLRHQCQHQSGIVQLLWEAGTAVVYTCSLDGIVRLWDARTGRLLTDYRGHTAEILDFALSKDASLVVTTSGDHKAKVFCVQRPDR
B3: CGG triplet repeat-binding protein 1 (Homo sapiens), Q9UFW8 (parent)
chain: MERFVVTAPPARNRSKTALYVTPLDRVTEFGGELHEDGGKLFCTSCNVVLNHVRKSAISDHLKSKTHTKRKAEFEEQNVRKKQRPLTASLQCNSTAQTEKVSVIQDFVKMCLEANIPLEKADHPAVRAFLSRHVKNGGSIPKSDQLRRAYLPDGYENENQLLNSQDC
partner: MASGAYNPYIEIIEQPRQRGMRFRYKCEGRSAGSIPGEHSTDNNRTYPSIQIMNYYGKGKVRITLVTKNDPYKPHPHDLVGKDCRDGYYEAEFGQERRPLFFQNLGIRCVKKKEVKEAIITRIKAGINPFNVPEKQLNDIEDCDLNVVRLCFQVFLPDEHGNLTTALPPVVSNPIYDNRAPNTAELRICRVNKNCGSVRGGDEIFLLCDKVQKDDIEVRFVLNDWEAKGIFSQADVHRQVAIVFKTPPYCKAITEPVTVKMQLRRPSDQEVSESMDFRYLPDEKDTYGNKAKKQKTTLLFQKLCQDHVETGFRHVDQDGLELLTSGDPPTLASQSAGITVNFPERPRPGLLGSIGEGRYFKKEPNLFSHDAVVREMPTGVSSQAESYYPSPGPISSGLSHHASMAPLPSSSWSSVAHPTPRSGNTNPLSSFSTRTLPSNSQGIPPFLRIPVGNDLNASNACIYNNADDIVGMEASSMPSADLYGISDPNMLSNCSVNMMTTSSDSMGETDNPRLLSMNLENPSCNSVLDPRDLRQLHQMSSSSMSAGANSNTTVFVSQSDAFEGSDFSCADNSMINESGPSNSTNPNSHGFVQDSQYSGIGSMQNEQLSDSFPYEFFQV
B4: E3 ubiquitin-protein ligase LNX (Homo sapiens), Q8TBB1 (parent)
chain: MNQPESANDPEPLCAVCGQAHSLEENHFYSYPEEVDDDLICHICLQALLDPLDTPCGHTYCTLCLTNFLVEKDFCPMDRKPLVLQHCKKSSILVNKLLNKLLVTCPFREHCTQVLQRCDLEHHFQTSCKGASHYGLTKDRKRRSQDGCPDGCASLTATAPSPEVSAAATISLMTDEPGLDNPAYVSSAEDGQPAISPVDSGRSNRTRARPFERSTIRSRSFKKINRALSVLRRTKSGSAVANHADQGRENSENTTAPEVFPRLYHLIPDGEITSIKINRVDPSESLSIRLVGGSETPLVHIIIQHIYRDGVIARDGRLLPGDIILKVNGMDISNVPHNYAVRLLRQPCQVLWLTVMREQKFRSRNNGQAPDAYRPRDDSFHVILNKSSPEEQLGIKLVRKVDEPGVFIFNVLDGGVAYRHGQLEENDRVLAINGHDLRYGSPESAAHLIQASERRVHLVVSRQVRQRSPDIFQEAGWNSNGSWSPGPGERSNTPKPLHPTITCHEKVVNIQKDPGESLGMTVAGGASHREWDLPIYVISVEPGGVISRDGRIKTGDILLNVDGVELTEVSRSEAVALLKRTSSSIVLKALEVKEYEPQEDCSSPAALDSNHNMAPPSDWSPSWVMWLELPRCLYNCKDIVLRRNTAGSLGFCIVGGYEEYNGNKPFFIKSIVEGTPAYNDGRIRCGDILLAVNGRSTSGMIHACLARLLKELKGRITLTIVSWPGTFL
partner: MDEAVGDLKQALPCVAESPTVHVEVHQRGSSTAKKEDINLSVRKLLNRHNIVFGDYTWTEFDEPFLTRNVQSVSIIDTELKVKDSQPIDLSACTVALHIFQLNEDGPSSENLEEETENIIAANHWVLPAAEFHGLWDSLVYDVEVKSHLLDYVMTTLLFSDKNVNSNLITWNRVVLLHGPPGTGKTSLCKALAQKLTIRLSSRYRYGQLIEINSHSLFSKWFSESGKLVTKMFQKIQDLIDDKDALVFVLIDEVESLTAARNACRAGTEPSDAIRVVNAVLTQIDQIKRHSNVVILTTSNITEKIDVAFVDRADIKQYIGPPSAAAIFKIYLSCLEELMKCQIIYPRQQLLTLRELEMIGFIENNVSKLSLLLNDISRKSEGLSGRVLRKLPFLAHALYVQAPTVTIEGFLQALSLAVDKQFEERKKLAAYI
B5: Histone-lysine N-methyltransferase SMYD1 (Homo sapiens), Q8NB12 (parent)
chain: MTIGRMENVEVFTAEGKGRGLKATKEFWAADIIFAERAYSAVVFDSLVNFVCHTCFKRQEKLHRCGQCKFAHYCDRTCQKDAWLNHKNECSAIKRYGKVPNENIRLAARIMWRVEREGTGLTEGCLVSVDDLQNHVEHFGEEEQKDLRVDVDTFLQYWPPQSQQFSMQYISHIFGVINCNGFTLSDQRGLQAVGVGIFPNLGLVNHDCWPNCTVIFNNGNHEAVKSMFHTQMRIELRALGKISEGEELTVSYIDFLNVSEERKRQLKKQYYFDCTCEHCQKKLKDDLFLGVKDNPKPSQEVVKEMIQFSKDTLEKIDKARSEGLYHEVVKLCRECLEKQEPVFADTNIYMLRMLSIVSEVLSYLQAFEEASFYARRMVDGYMKLYHPNNAQLGMAVMRAGLTNWHAGNIEVGHGMICKAYAILLVTHGPSHPITKDLEAMRVQTEMELRMFRQNEFMYYKMREAALNNQPMQVMAEPSNEPSPALFHKKQ
partner: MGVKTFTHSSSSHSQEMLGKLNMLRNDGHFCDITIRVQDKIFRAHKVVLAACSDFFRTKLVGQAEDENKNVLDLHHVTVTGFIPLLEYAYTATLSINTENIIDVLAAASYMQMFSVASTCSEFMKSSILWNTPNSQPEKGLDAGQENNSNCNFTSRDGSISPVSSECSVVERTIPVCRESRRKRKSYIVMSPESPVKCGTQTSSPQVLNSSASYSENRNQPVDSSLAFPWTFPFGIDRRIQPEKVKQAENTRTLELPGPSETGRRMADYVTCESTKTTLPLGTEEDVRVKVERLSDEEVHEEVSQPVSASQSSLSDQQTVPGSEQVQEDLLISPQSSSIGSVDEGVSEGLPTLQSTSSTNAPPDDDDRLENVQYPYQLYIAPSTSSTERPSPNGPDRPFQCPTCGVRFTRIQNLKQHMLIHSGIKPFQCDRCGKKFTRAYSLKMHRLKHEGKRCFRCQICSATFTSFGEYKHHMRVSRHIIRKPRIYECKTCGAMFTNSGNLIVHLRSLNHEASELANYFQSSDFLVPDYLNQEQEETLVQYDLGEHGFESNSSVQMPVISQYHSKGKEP

Variants of: B1
Details: with mlh1_human MLH1, P40692
mlh1_human MLH1, P40692, sequence (P40692 whole entry): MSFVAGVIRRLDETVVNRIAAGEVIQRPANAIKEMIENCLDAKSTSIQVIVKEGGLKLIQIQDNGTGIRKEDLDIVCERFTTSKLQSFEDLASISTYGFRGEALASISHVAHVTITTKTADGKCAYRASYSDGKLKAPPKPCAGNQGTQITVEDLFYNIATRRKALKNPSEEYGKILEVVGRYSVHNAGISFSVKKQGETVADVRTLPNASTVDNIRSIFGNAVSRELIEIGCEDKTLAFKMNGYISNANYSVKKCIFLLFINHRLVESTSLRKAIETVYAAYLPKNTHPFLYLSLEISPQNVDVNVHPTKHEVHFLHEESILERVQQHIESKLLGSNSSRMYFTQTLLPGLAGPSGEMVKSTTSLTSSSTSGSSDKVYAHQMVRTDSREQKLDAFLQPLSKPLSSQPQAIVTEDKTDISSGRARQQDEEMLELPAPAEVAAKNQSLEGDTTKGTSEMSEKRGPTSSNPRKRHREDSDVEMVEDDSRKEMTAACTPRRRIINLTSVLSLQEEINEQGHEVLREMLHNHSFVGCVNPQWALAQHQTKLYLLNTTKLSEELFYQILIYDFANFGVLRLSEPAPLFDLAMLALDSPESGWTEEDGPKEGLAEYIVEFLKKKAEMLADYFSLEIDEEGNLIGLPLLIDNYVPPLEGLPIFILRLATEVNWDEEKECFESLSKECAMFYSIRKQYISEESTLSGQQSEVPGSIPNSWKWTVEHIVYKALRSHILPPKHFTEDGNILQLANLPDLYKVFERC

| Variant | effect of a mutation on the interaction |
| --- | --- |
| E408D | with no effect |

Variants of: B2
Details: with bhe40_human BHLHE40, O14503
bhe40_human BHLHE40, O14503, sequence (O14503 whole entry): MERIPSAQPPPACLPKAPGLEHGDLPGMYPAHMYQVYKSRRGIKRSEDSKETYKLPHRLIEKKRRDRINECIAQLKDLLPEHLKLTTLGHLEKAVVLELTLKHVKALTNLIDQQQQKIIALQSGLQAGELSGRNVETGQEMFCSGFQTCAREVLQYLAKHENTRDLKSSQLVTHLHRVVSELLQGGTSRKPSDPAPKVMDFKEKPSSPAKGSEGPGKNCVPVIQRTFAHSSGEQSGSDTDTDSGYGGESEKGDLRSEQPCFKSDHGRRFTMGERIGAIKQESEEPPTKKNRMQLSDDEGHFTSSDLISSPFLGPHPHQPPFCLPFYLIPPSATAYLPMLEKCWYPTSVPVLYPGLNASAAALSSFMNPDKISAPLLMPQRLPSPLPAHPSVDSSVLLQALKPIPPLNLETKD

| Variant | effect of a mutation on the interaction |
| --- | --- |
| I343F | with no effect |

Variants of: B3
Details: with rel_human REL

| Variant | effect of a mutation on the interaction |
| --- | --- |
| R54C | disrupting interaction strength |

Variants of: B4
Details: with pch2_human TRIP13, Q15645

| Variant | effect of a mutation on the interaction |
| --- | --- |
| E295K | disrupting interaction strength |

Variants of: B5
Details: with zbt44_human ZBTB44, Q8NCP5

| Variant | effect of a mutation on the interaction |
| --- | --- |
| Q443R | disrupting interaction strength |
